Data from publication PMC7963221 (2021).

B1: ADG-3 (antibody, V domains shown)
VH: EVQLVESGGGLIQPGGSLRLSCAASGFPFKGTYMTWVRQAPGKGLEWVSIIYSGGDTYYADSVKGRFTISRDNSKNTLFLQMNSLRVEDTAMYYCARDREMAIITERTYGLDVWGQGTMVTVSS
VL: QSVLTQPPSASGTPGQRVTISCSGGSSNIGSNSVNWYQQLPGTAPKLLIYSNSQRPSGVPDRFSGSKSGTSASLAISGLQSEDEADYYCAAWDDSLNTFRYVFGTGTKVTVL
B2: ADG-2 (antibody, V domains shown)
VH: EVQLVESGGGLVKPGGSLRLSCAASGFTFSSYYMNWVRQAPGKGLEWVSSISEDGYSTYYPDSLKGRFTISRDSAKNSLYLQMNSLRADDTAVYYCARDFSGHTAWAGTGFEYWGQGTLVTVSS
VL: QSVLTQPPSVSGAPGQRITISCTGSSSNIGAGYDVHWYQQLPGTAPKLLIYGSSSRNSGVPDRFSGSKSGTSASLAITGLQAEDEADYYCQSYDSSLSVLYTFGTGTKVTVL
B3: ADG-1 (antibody, V domains shown)
VH: QVQLVESGGGLVQPGGSLRLSCSASGFTFSRFAMHWVRQAPGKGLEYVSAINLNGDSKYYTDSVRGRFTISRDNSKNTLYLQMSSVRPDDTAFYYCVKDGGYYDSSGPGHWGQGTLVTVSS
VL: EIVLTQSPATLSLSPGERATLSCRASENILHYLAWYQQKPGQAPRLVIYDASRRATGIPGRFSGSGAGTDFTLTINSLEPEDFAVYYCQQRANWPQNFGGGTKVEIK

What was measured:
Assay in all cases: FACS
Frankfurt 1 RBD = target: Frankfurt 1 RBD
Civet 007-2004 RBD = target: Civet 007-2004 RBD
A021 RBD = target: A021 RBD
SHC014 RBD = target: SHC014 RBD
BM48-31 RBD = target: BM48-31 RBD
LYRa11 RBD = target: LYRa11 RBD
RaTG13 RBD = target: RaTG13 RBD
CS24 RBD = target: CS24 RBD
GD-Pangolin RBD = target: GD-Pangolin RBD
Rs4231 RBD = target: Rs4231 RBD
WIV1 RBD = target: WIV1 RBD
[1] = target: SARS-CoV-2 RBD (WT) displayed on the surface of yeast (SARS-CoV-2, UniProt P0DTC2)
[2] = target: SARS-CoV RBD displayed on the surface of yeast (SARS-CoV, UniProt P59594)
Pangolin_GX- RBD = target: Pangolin_GX- RBD

Binder | Kd (Frankfurt 1 RBD) [nM] | Kd (Civet 007-2004 RBD) [nM] | Kd (A021 RBD) [nM] | Kd (SHC014 RBD) [nM] | Kd (BM48-31 RBD) [nM] | Kd (LYRa11 RBD) [nM] | Kd (RaTG13 RBD) [nM] | Kd (CS24 RBD) [nM] | Kd (GD-Pangolin RBD) [nM] | Kd (Rs4231 RBD) [nM] | Kd (WIV1 RBD) [nM] | Kd [1] [nM] | Kd [2] [nM] | Kd (Pangolin_GX- RBD) [nM]
B1 | 0.96 | 0.9 | 0.91 | 0.93 | 3.09 | 0.92 | 0.88 | 1.05 | 0.68 | 1.07 | 0.72 | 0.55 | 0.91 | –
B2 | 0.38 | 0.35 | 0.47 | 0.33 | – | 0.47 | – | 0.45 | 0.24 | 0.4 | 0.42 | 0.43 | 0.39 | 1.12
B3 | 0.97 | 0.78 | 0.95 | – | – | 0.79 | – | 0.97 | 0.87 | – | 0.68 | 0.73 | 1.09 | –
